Test results published in patent US6822073 (KIMBERLY CLARK WORLDWIDE, dated 2004).
Bridges are numbered along the chain shown (N, C = ends). Where no end group is shown, it is not given here.

Tests used:
[1] = target: T1, bovine pancreatic trypsin (bovine, UniProt P00760 24-246); experiment: ITC, SAP-2 (1.0 mM) injected into trypsin (20 µM), 25 °C (FIG. 8)
T1 construct: It was dialyzed into the ITC buffer and flowed over the chip in SPR

[2] = target: T1, bovine pancreatic trypsin; experiment: ITC, SAP-1 injected into trypsin, 303 K
[3] = target: T1, bovine pancreatic trypsin; experiment: ITC, SAP-1 (1 mM) injected into trypsin (20 µM), 293 K
Protocol: Figure 7: FIG. 7 provides an ITC analysis of the interaction between SAP-1 and bovine pancreatic trypsin. SAP-1 was dissolved in 20 mM cacadylate (pH 7.0), 20 mM NaCl at a final concentration of 1 mM. Trypsin was dialyzed into the same buffer and was used in the calorimeter cell at a concentration of 20 µM. The temperature was maintained at 20° C. Forty injections of 5 µL each were employed with a 240 second re-equilibrium time between injections.

[4] = target: T1, bovine pancreatic trypsin; experiment: isothermal titration calorimetry, 30 °C
Protocol: Figure 6: FIG. 6 provides an ITC analysis of the interaction between SAP and bovine pancreatic trypsin. SAP was dissolved in 20 mM cacodylate (pH 7.0), 20 mM NaCl at a final concentration of 2 mM. Trypsin was dialyzed into the same buffer and was used in the calorimeter cell at a concentration of 20 µM. No binding is evident throughout the titration. The temperature was maintained at 30° C. Forty injections of 5 µL each were employed with a 240 second re-equilibrium time between injections.
The ability of SAP, SAP-1, and SAP-2 to bind bovine pancreatic trypsin was measured by isothermal titration calorimetry (ITC). […] Under all experimental conditions, there is no detectable binding.

T1 sequence (P00760 24-246): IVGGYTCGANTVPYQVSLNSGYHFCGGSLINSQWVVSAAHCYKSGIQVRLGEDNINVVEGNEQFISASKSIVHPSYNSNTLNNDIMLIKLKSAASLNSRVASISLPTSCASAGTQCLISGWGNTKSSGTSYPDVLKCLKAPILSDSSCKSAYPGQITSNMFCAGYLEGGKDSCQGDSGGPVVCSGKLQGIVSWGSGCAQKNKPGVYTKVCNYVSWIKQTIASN

B1: SAP-2 (SAP backbone with the library-selected YKLKY insert) (designed binder)
chain: CPSQPTYPGDPYKLKYGPVEDLIRFYDNLQQWLNCVTAAC
notes: It was expressed in E. coli; In SPR it was coupled to the chip through the C-terminal cysteine thiol; also called recombinant SAP-2
[1]
  Ka: 640000 M⁻¹
  Stoichiometry: 0.995
  ΔH: -31.2 kcal/mol
  ΔS: -16.2 cal mol^-1 K^-1

B2: SAP-1 (SAP backbone with the PYRIRF insert from Bovine Pancreatic Trypsin Inhibitor) (designed binder)
chain: CPSQPTYPGDPPYRIRFGPVEDLIRFYDNLQQWLNCVTAAC
notes: It was expressed in E. coli; In SPR it was coupled to the chip through the C-terminal cysteine thiol
[2]
  Ka: 2.4e+06 M⁻¹
  Stoichiometry: 0.99
  ΔH: -15.4 kcal/mol
  ΔS: -21.1 cal mol^-1 K^-1
[3]
  Ka: 1.65e+06 M⁻¹
  Stoichiometry: 0.975
  ΔH: -26.1 kcal/mol
  ΔS: -11.6 cal mol^-1 K^-1

B3: SAP (Synthetic Antibody Peptide), parental peptide backbone (designed binder)
chain: MCPSQPTYPGDPGPVEDLIRFYDNLQQWLNCVTAAC
modifications: disulfide 2-31
notes: Re-engineered avian pancreatic polypeptide with no insert; It was expressed in E. coli from pSAPe and purified; also called SAP peptide; SAP molecule
[4]
  binding result: no binding
